According to US20170306033A1 (Amgen, published 2017):

What was measured:
human CGRP receptor = human CGRP receptor (human, UniProt Q16602 23-461; O60894 27-148); experiment: cell-based or functional assay
human PAC1 receptor = target: T1, human PAC1 receptor (human, UniProt P41586 21-468); experiment: cell-based or functional assay
T1 sequence: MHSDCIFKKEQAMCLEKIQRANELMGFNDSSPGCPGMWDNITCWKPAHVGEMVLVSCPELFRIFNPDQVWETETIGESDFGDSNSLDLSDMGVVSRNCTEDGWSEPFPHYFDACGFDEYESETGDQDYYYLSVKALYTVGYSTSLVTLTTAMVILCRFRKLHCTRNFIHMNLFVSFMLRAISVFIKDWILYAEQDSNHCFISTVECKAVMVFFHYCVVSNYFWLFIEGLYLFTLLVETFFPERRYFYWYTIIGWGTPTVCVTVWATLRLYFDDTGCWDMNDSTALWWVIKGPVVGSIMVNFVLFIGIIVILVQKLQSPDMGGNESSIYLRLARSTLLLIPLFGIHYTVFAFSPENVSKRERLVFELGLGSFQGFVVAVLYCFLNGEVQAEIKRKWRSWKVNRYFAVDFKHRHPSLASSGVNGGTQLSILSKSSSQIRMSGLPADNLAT

human CGRP receptor, sequence (Q16602 23-461 limits assumed, chain 1 of 2): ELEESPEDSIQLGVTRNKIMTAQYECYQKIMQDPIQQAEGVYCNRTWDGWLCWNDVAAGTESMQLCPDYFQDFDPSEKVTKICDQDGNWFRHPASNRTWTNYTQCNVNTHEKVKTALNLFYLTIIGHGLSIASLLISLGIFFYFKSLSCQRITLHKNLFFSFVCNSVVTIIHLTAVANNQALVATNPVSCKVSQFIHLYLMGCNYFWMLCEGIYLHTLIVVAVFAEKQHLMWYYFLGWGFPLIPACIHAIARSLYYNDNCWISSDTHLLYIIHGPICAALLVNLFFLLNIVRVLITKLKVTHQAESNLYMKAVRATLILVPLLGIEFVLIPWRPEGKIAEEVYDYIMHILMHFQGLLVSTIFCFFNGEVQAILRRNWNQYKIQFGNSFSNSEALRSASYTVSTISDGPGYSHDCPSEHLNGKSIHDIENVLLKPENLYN
human CGRP receptor, sequence (O60894 27-148 limits assumed, chain 2 of 2): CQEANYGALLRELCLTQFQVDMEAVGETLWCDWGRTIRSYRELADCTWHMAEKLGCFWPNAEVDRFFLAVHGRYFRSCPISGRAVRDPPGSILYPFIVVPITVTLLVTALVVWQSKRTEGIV

B1: iPS:327875 (bispecific antibody, human IgG1, kappa, N297G)
light 1: not shown
heavy 1: not shown
light 2: EIVLTQSPGTLSLSPGERATLSCRASQSVSSGYLTWYQQKPGQAPRLLIYGASSRATGIPDRFSGSGSGTDFTLTISRLEPEDFAVYYCQQYGNSLSRFGKGTKLEIKRTVAAPSVFIFPPSDEQLKSGTASVVCLLNNFYPREAKVQWKVDNALQSGNSQESVTEQDSKDSTYSLKSTLTLSKADYEKHKVYACEVTHQGLSSPVTKSFNRGEC
heavy 2: QVQLVESGGGVVQPGRSLRLSCAASGFTFSSYGMHWVRQAPGKELEWVAVIWYDGSNKYYAESVKGRFIISRDKSKNTLYLQMNSLRAEDTAVYYCARAGGIAAAGLYYYYGMDVWGQGTTVTVSSASTKGPSVFPLAPSSKSTSGGTAALGCLVKDYFPEPVTVSWNSGALTSGVHTFPAVLQSSGLYSLESVVTVPSSSLGTQTYICNVNHKPSNTKVDKKVEPKSCDKTHTCPPCPAPELLGGPSVFLFPPKPKDTLMISRTPEVTCVVVDVSHEDPEVKFNWYVDGVEVHNAKTKPCEEQYGSTYRCVSVLTVLHQDWLNGKEYKCKVSNKALPAPIEKTISKAKGQPREPQVYTLPPSRKEMTKNQVSLTCLVKGFYPSDIAVEWESNGQPENNYKTTPPVLKSDGSFFLYSKLTVDKSRWQQGNVFSCSVMHEALHNHYTQKSLSLSPGK
For B1, the “% inhibition of human CGRPR” value (human CGRP receptor) was 83% and the “% inhibition of human PAC1” value (human PAC1 receptor) was 10%.

B2: iPS:327737 (bispecific antibody, human IgG1, kappa, lambda, N297G)
light 1: DIQLTQSPSFLSASVGDRVTITCRASQSIGRSLHWYQQKPGKAPKLLIKYASQSLSGVPSRFSGSGSGTEFTLTISSLQPEDFATYYCHQSSRLPFTFGEGTKVDIKRTVAAPSVFIFPPSDEQLKSGTASVVCLLNNFYPREAKVQWKVDNALQSGNSQESVTEQDSKDSTYSLESTLTLSKADYEKHKVYACEVTHQGLSSPVTKSFNRGEC
heavy 1: not shown
light 2: QSVLTQPPSVSAAPGQKVTISCSGSSSNIGNNYVSWYQQLPGTAPKLLIYDNNKRPSGIPDRFSGSKSGTSATLGITGLQTGDEADYYCGTWDSRLSAVVFGKGTKLTVLGQPKANPTVTLFPPSSEELQANKATLVCLISDFYPGAVTVAWKADGSPVKAGVETTKPSKQSNNKYAAKSYLSLTPEQWKSHRSYSCQVTHEGSTVEKTVAPTECS
heavy 2: QVQLVESGGGVVQPGRSLRLSCAASGFTFSSFGMHWVRQAPGKELEWVAVISFDGSIKYSVDSVKGRFTISRDNSKNTLFLQMNSLRAEDTAVYYCARDRLNYYESSGYYHYKYYGMAVWGQGTTVTVSSASTKGPSVFPLAPSSKSTSGGTAALGCLVKDYFPEPVTVSWNSGALTSGVHTFPAVLQSSGLYSLESVVTVPSSSLGTQTYICNVNHKPSNTKVDKKVEPKSCDKTHTCPPCPAPELLGGPSVFLFPPKPKDTLMISRTPEVTCVVVDVSHEDPEVKFNWYVDGVEVHNAKTKPCEEQYGSTYRCVSVLTVLHQDWLNGKEYKCKVSNKALPAPIEKTISKAKGQPREPQVYTLPPSRKEMTKNQVSLTCLVKGFYPSDIAVEWESNGQPENNYKTTPPVLKSDGSFFLYSKLTVDKSRWQQGNVFSCSVMHEALHNHYTQKSLSLSPGK
With B2 the “% inhibition of human CGRPR” value (human CGRP receptor) was 82% and the “% inhibition of human PAC1” value (human PAC1 receptor) was 54%.

B3: iPS:327739 (bispecific antibody, human IgG1, kappa, lambda, N297G)
light 1: not shown
heavy 1: not shown
light 2: QSVLTQPPSVSAAPGQKVTISCSGSSSNIGNNYVSWYQQLPGTAPKLLIYDNNKRPSGIPDRFSGSKSGTSATLGITGLQTGDEADYYCGTWDSRLSAVVFGGGTKLTVLGQPKANPTVTLFPPSSEELQANKATLVCLISDFYPGAVTVAWKADGSPVKAGVETTKPSKQSNNKYAAKSYLSLTPEQWKSHRSYSCQVTHEGSTVEKTVAPTECS
heavy 2: QVQLVESGGGVVQPGRSLRLSCAASGFTFSSFGMHWVRQAPGKGLEWVAVISFDGSIKYSVDSVKGRFTISRDNSKNTLFLQMNSLRAEDTAVYYCARDRLNYYESSGYYHYKYYGMAVWGQGTTVTVSSASTKGPSVFPLAPSSKSTSGGTAALGCLVKDYFPEPVTVSWNSGALTSGVHTFPAVLQSSGLYSLESVVTVPSSSLGTQTYICNVNHKPSNTKVDKKVEPKSCDKTHTCPPCPAPELLGGPSVFLFPPKPKDTLMISRTPEVTCVVVDVSHEDPEVKFNWYVDGVEVHNAKTKPCEEQYGSTYRCVSVLTVLHQDWLNGKEYKCKVSNKALPAPIEKTISKAKGQPREPQVYTLPPSRKKMTKNQVSLTCLVKGFYPSDIAVEWESNGQPENNYKTTPPVLKSDGSFFLYSKLTVDKSRWQQGNVFSCSVMHEALHNHYTQKSLSLSPGK
B3 was tested, and the “% inhibition of human CGRPR” value (human CGRP receptor) was 79% and the “% inhibition of human PAC1” value (human PAC1 receptor) was 76%.

B4: iPS:327728 (bispecific antibody, human IgG1, kappa, lambda, N297G)
light 1: not shown
heavy 1: not shown
light 2: QSVLTQPPSVSAAPGQKVTISCSGSSSNIGNNYVSWYQQLPGTAPKLLIYDNNKRPSGIPDRFSGSKSGTSATLAITGLQTGDEADYYCGTWDSRLSAVVFGGGTKLTVLGQPKANPTVTLFPPSSEELQANKATLVCLISDFYPGAVTVAWKADGSPVKAGVETTKPSKQSNNKYAAKSYLSLTPEQWKSHRSYSCQVTHEGSTVEKTVAPTECS
heavy 2: QVQLVESGGGVVQPGRSLRLSCAASGFTFSSFGMHWVRQAPGKGLEWVAVISFDGSIKYSVDSVKGRFTISRDNSKNTLFLQMNSLRAEDTAVYYCARDRLNYYDSSGYYHYKYYGMAVWGQGTTVTVSSASTKGPSVFPLAPSSKSTSGGTAALGCLVKDYFPEPVTVSWNSGALTSGVHTFPAVLQSSGLYSLESVVTVPSSSLGTQTYICNVNHKPSNTKVDKKVEPKSCDKTHTCPPCPAPELLGGPSVFLFPPKPKDTLMISRTPEVTCVVVDVSHEDPEVKFNWYVDGVEVHNAKTKPCEEQYGSTYRCVSVLTVLHQDWLNGKEYKCKVSNKALPAPIEKTISKAKGQPREPQVYTLPPSRKKMTKNQVSLTCLVKGFYPSDIAVEWESNGQPENNYKTTPPVLKSDGSFFLYSKLTVDKSRWQQGNVFSCSVMHEALHNHYTQKSLSLSPGK
In the case of B4, the “% inhibition of human CGRPR” value (human CGRP receptor) is reported as 80% and the “% inhibition of human PAC1” value (human PAC1 receptor) is reported as 79%.

B5: iPS:327738 (bispecific antibody, human IgG1, kappa, lambda, N297G)
light 1: EIVLTQSPATLSLSPGERATLSCRASQSVGRSLHWYQQKPGQAPRLLIKYASQSLSGIPARFSGSGSGTDFTLTISSLEPEDFAVYYCHQSSRLPFTFGEGTKVDIKRTVAAPSVFIFPPSDEQLKSGTASVVCLLNNFYPREAKVQWKVDNALQSGNSQESVTEQDSKDSTYSLESTLTLSKADYEKHKVYACEVTHQGLSSPVTKSFNRGEC
heavy 1: not shown
light 2: QSVLTQPPSVSAAPGQKVTISCSGSSSNIGNNYVSWYQQLPGTAPKLLIYDNNKRPSGIPDRFSGSKSGTSATLGITGLQTGDEADYYCGTWDSRLSAVVFGKGTKLTVLGQPKANPTVTLFPPSSEELQANKATLVCLISDFYPGAVTVAWKADGSPVKAGVETTKPSKQSNNKYAAKSYLSLTPEQWKSHRSYSCQVTHEGSTVEKTVAPTECS
heavy 2: QVQLVESGGGVVQPGRSLRLSCAASGFTFSSFGMHWVRQAPGKELEWVAVISFDGSIKYSVDSVKGRFTISRDNSKNTLFLQMNSLRAEDTAVYYCARDRLNYYESSGYYHYKYYGMAVWGQGTTVTVSSASTKGPSVFPLAPSSKSTSGGTAALGCLVKDYFPEPVTVSWNSGALTSGVHTFPAVLQSSGLYSLESVVTVPSSSLGTQTYICNVNHKPSNTKVDKKVEPKSCDKTHTCPPCPAPELLGGPSVFLFPPKPKDTLMISRTPEVTCVVVDVSHEDPEVKFNWYVDGVEVHNAKTKPCEEQYGSTYRCVSVLTVLHQDWLNGKEYKCKVSNKALPAPIEKTISKAKGQPREPQVYTLPPSRKEMTKNQVSLTCLVKGFYPSDIAVEWESNGQPENNYKTTPPVLKSDGSFFLYSKLTVDKSRWQQGNVFSCSVMHEALHNHYTQKSLSLSPGK
With B5 the “% inhibition of human CGRPR” value (human CGRP receptor) was 85% and the “% inhibition of human PAC1” value (human PAC1 receptor) was 93%.
